The values below come from paper PMC12082725.

In the data set the target is SARS-CoV-2 nucleocapsid protein (NP), full length (SARS-CoV-2, UniProt P0DTC9 1-419). Nature of the data set: BLI.

By Kd is commonly meant a measure of binding affinity in units of concentration. Lower therefore signals a tighter complex. The molecule UCUAAACGAAC (ssRNA) [11-mer 5' TRS-derived RNA] registered a Kd of 3.83 ± 0.04 nM.
